Reference: US20250326834A1, “COMBINATION THERAPY OF CLAUDIN 18.2 ANTAGONIST AND PD-1/PD-L1 AXIS INHIBITOR” (SUZHOU TRANSCENTA THERAPEUTICS CO., LTD., priority 2021, published 2025)

Tested on: NCI-H460-CLDN18.2 xenograft tumor
Assay: NCI-H460-CLDN18.2 and hPBMC co-inoculation xenograft tumor model
Format: in vivo, NOD-SCID mice
Conditions: 10 mg/kg each antibody, i.p. twice a week for 5 weeks
Description: NCI-H460-CLDN18.2 was purchased from Kyinno (Cat #, KC-1450), which was stablely transfected with human CLDN18.2 expression. The tumor cells were routinely sub-cultured twice weekly by trypsin-EDTA treatment (Hyclone). The cells growing in an exponential growth phase were harvested and counted for tumor inoculation. Female SPF grade NOD-SCID mice were inoculated with 3×10^6 NCI-H460-CLDN18.2 cells and 1.5×10^6 human PBMC along with 50% matrigel. Animal were selected and randomized to 4 groups (n=10), approximately 4 hours post inoculation. Animals were then treated with 10 mg/kg Isotype control, 10 mg/kg anti-CLDN18.2 antibody 18B10, 10 mg/kg anti-PD-L1 antibody AM4B6, 10 mg/kg anti-CLDN18.2 antibody 18B10 and 10 mg/kg anti-PD-L1 antibody AM4B6 twice a week for 5 weeks by i.p. injection. Tumor size was measured twice or triple times a week in two dimensions using a caliper (INSIZE) and the volume was expressed in mm^3 using the formula: V=0.5 a×b^2 where a and b are the long and short diameters of the tumor, respectively. Results were analyzed using Prism GraphPad and expressed as mean±S.E.M. Comparisons between two groups were made by T-test, and the difference is considered significant if p is *<0.05 and **<0.01.

B1: AM4B6: anti-PD-L1 antibody; VH SEQ ID NO: 17, VL SEQ ID NO: 18 (antibody, V domains shown)
VH: QVQLVQSGAEVKKPGASVKVSCKASGYVFTDYYMNWVRQAPGQSLEWMGDINPNNAETLYNHKFKGRVTVTVDKSISTAYMELSRLRSDDTAVYYCVKWGDGPFAYWGQGTLVTVSS
VL: DIQMTQSPSSLSASVGDRVTITCKASQNVGAAVAWYQQKPGKAPKLLIYSVSDRYTGVPSRFSGSGSGTDFTLTISSLQPEDIATYYCQQYSNYPTFGQGTKLEIK
effect on tumor growth compared with isotype control: no significant impact on tumor growth | TGI (Day 29): 17.6% | Tumor size (Day 29, mean ± S.E.M.): 557.06 ± 67.47 mm^3
